Experimental data: paper PMC7862611, “Ribosome-bound Get4/5 facilitates the capture of tail-anchored proteins by Sgt2 in yeast” (Nature Communications, 2021)

T1: RNCs carrying the most N-terminal 100 residues of Pgk1 as a nascent chain (yeast (S. cerevisiae) | S. cerevisiae) (UniProt P00560)
T1 sequence (P00560 1-100, looked up): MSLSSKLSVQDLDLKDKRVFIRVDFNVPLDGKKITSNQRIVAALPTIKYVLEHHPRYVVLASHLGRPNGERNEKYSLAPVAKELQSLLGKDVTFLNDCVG


Key:
[1] = target: T1, RNCs carrying the most N-terminal 100 residues of Pgk1 as a nascent chain (yeast (S. cerevisiae) | S. cerevisiae); test: pull-down; FLAG-tag pull-down of RNCs with N-terminally FLAG-tagged nascent chains made in yeast translation extracts (wild type, Δsrp54, without Get4/5, without Sgt2 or Get3; with or without 2 µM purified His6Get4/Get5), RNCs first pelleted through a sucrose cushion; immunoblot
[2] = target: released Sec22 (yeast (S. cerevisiae)) (UniProt P22214); test: pull-down; FLAG-tag pull-down of radiolabelled ribosome-released FLAG-Sec22 from yeast translation reactions (wild type, Δget3 with or without 2 µM His6Get4/Get5, Δget3Δget4Δget5); immunoblot
80S ribosome = 80S ribosome (S. cerevisiae); test: fluorescence polarisation; fluorescence anisotropy; Get4/5-Atto390 held at 20 nM, 80S ribosomes added to 20–500 nM; 20 °C; 50 mM Tris/HCl pH 7.5, 70 mM NH4Cl, 30 mM KCl, 7 mM MgCl2; one site saturation binding fit; details: both partners purified

released Sec22 (yeast (S. cerevisiae)), sequence (P22214 whole entry): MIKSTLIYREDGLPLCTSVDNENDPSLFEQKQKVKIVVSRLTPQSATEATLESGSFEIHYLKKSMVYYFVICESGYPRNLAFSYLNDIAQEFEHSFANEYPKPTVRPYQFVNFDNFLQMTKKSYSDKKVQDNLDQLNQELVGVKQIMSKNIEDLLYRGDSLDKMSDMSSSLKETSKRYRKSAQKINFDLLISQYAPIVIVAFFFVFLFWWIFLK

percent associated with RNCs [1] [%] | Molecule | further results
2 | Get4 (from UniProt Q12125 1-312) (natural protein) | –
2 | Get5 (from UniProt Q12285 1-212) (natural protein) | –
– | Sgt2 (from UniProt Q12118 1-346) (natural protein) | fold change of binding with added m3 against no addition, Δget3 extract [2]: > 2 fold
0.3 | signal recognition particle (SRP), followed by its 54 kDa subunit Srp54 (natural protein) MVLADLGKRINSAVNNAISNTQDDFTTSVDVMLKGIVTALLESDVNIALVSKLRNNIRSQLLSENRSEKSTTNAQTKKLIQKTVFDELCKLVTCEGSEEKAFVPKKRKTNIIMFVGLQGSGKTTSCTKLAVYYSKRGFKVGLVCADTFRAGAFDQLKQNAIRARIPFYGSYTETDPAKVAEEGINKFKKEKFDIIIVDTSGRHHQEEELFQEMIEISNVIKPNQTIMVLDASIGQAAEQQSKAFKESSDFGAIILTKMDGHARGGGAISAVAATNTPIIFIGTGEHIHDLEKFSPKSFISKLLGIGDIESLFEQLQTVSNKEDAKATMENIQKGKFTLLDFKKQMQTIMKMGPLSNIAQMIPGMSNMMNQVGEEETSQKMKKMVYVLDSMTKEELESDGRMFIEEPTRMVRVAKGSGTSVFEVEMILMQQQMMARMAQTATQQQPGAPGANARMPGMPNMPGMPNMPGMPNMPGMPKVTPQMMQQAQQKLKQNPGLMQNMMNMFGGGMGGGMGGGMPDMNEMMKMMQDPQMQQMAKQFGMG | –
– | Get4/5-Atto390 (complex, yeast (S. cerevisiae), ATTO-390-maleimide on the surface-exposed cysteine of the two cysteines present in Get4 (C177, 255), Get4, yeast; Get5, yeast; also called Get4/His6Get5; Get4_(2)Get5_(2) complex; copies: 2 + 2) chain 1: MVPAESNAVQAKLAKTLQRFENKIKAGDYYEAHQTLRTIANRYVRSKSYEHAIELISQGALSFLKAKQGGSGTDLIFYLLEVYDLAEVKVDDISVARLVRLIAELDPSEPNLKDVITGMNNWSIKFSEYKFGDPYLHNTIGSKLLEGDFVYEAERYFMLGTHDSMIKYVDLLWDWLCQVDDIEDSTVAEFFSRLVFNYLFISNISFAHESKDIFLERFIEKFHPKYEKIDKNGYEIVFFEDYSDLNFLQLLLITCQTKDKSYFLNLKNHYLDFSQAYKSELEFLGQEYFNIVAPKQTNFLQDMMSGFLGGSK chain 2: MSTSASGPEHEFVSKFLTLATLTEPKLPKSYTKPLKDVTNLGVPLPTLKYKYKQNRAKKLKLHQDQQGQDNAAVHLTLKKIQAPKFSIEHDFSPSDTILQIKQHLISEEKASHISEIKLLLKGKVLHDNLFLSDLKVTPANSTITVMIKPNPTISKEPEAEKSTNSPAPAPPQELTVPWDDIEALLKNNFENDQAAVRQVMERLQKGWSLAK | Kd (80S ribosome): 110 nM
